# Reference: patent US20240218054A1 (MABLOC, published 2024)
# Target: T1, recombinant YFV E protein (soluble E, sE; YFV Asibi strain) (Yellow fever virus, Asibi strain, UniProt Q6DV88 286-678)
# T1 construct: also called YFV E antigen; YFV E monomer
# Assay: BLI monovalent (IgG on tip)
# T1 sequence (Q6DV88 286-678): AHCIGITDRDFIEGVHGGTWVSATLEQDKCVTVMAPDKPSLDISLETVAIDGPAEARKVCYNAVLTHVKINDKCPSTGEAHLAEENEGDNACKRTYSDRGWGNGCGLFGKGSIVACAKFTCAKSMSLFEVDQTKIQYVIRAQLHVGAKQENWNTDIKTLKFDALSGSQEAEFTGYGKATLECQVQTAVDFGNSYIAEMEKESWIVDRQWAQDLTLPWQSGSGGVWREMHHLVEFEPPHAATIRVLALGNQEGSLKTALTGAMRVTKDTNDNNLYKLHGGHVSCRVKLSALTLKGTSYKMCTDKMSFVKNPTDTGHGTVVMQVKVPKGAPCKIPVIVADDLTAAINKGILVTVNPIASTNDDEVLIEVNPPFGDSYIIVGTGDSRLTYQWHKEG
row,Binder,Kd [nM]
1,"ADI-49590 (antibody, V domains shown, full-length IgG; also called Antibody Number 96) VH: QVQLVQSGAEVKKPGASVKVSCKASGYTFTGYYMHWVRQAPGQGLEWMGRINPNSGGTNYAQKFQGRVTMTRDTSISTAYMELSRLRSDDTAVYYCYVDYYYDSSGYYSPFDYWGQGTLVTVSS VL: not shown",109
2,"ADI-45083 (antibody, V domains shown, full-length IgG; also called Antibody Number 9) VH: QVQLVESGPGLVKPSGTLSLTCAVSGGSISSDYWWSWVRQPPGKGLEYIGEIYHTGSTNYNPSLKSRVTVSLDRSKNVFSLTLRSVTAADTAVYYCARSHWRSPQSVTFDLWGQGTTVTVSS VL: QPVLTQPPSVSAAPGQKVTISCSGSNSNIGNYYVSWYQQFPGTAPKLLIYDNNKRPSGIPDRFSGSKSGTSATLAITGLQTGDEAHYYCGTWDTSSLSAGRVFGGGTKLTVL",3.45
3,"ADI-48435 (antibody, V domains shown, full-length IgG; also called Antibody Number 85) VH: QVQLVQSGAEVKKPGASVKVSCKASGYTFTSYGISWVRQAPGQGLEWMGWISAYNGNTNYAQKLQGRVTMTTDTSTSTAYMELRSLRSDDTAVYYCARRGTTVTRFGVIQYYYGMDVWGQGTTVTVSS VL: QSVLTQPASVSGSPGQSITISCTGTSSDVGGYNYVSWYQQHPGKAPKLMIYDVSNRPSGVSNRFSGSKSGNTASLTISGLQAEDEADYYCSSYTSSSTLVFGGGTQLTVL",> 100
4,"ADI-49141 (antibody, V domains shown, full-length IgG; also called Antibody Number 89) VH: EVQLQESGPGLVKPSGTLSLTCAVSGGSISSSNWWTWVRQPPGKGLEWIGEIYHSGSTNYNPSLESRVTMSVDKSKNQFSLKLSSVTAADTAVYYCARVQTSHSELWFGEFGADWGQGTLVTVSS VL: DIVMTQSPATLSVSPGERATLSCRASQSVSSNLAWYQQKPGQAPRLLIYGASTRATGIPARFSGSGSGTEFTLTISSLQSEDFAVYSCQQYNTWPKTFGQGTKVEIK",187
5,"ADI-45161 (antibody, V domains shown, full-length IgG; also called Antibody Number 92) VH: QVQLQESGGGVVQPGRSLRLSCAASGFTFSSYGMHWVRQAPGKGLEWVAVIWYDGSNKYYADSVKGRFTISRDNSKNTLYLQMNSLRAEDTAVYYCARDVGYQLLQVYGMDVWGQGTTVTVSS VL: QSALTQPASVSGSPGQSITISCTGTSSDVGGYNYVSWYQQHPGKAPKLMIYEVSNRPSGVSNRFSGSKSGNTASLTISGLQAEDEADYYCSSYTSSSTLDVVFGGGTKLTVL",> 100
6,"ADI-46742 (antibody, V domains shown, full-length IgG; also called Antibody Number 86) VH: QVQLQESGPGLVKPSETLSLTCTVSGASIRSYLWSWIRQPPGKELEWLGSIYHSGSTKYNPSLKSRVTISADTSKNQFSLKLNSVTAADTAVFYCARETANNWFDPWGQGTLVTVSS VL: SYELTQPPSVSVAPGQTARIICGGNYIGGKSVHWYQQKPGQAPVLVVYNDNDRPSGIPERFSGSNSGNTATLTISRVAAGDEADYYCQVWDNSSDRRVFGGGTKLTVL",> 100
7,"ADI-49162 (antibody, V domains shown, full-length IgG; also called Antibody Number 83) VH: EVQLVESGGTFLQPGGSLRLSCVASGFTFGTHAMSWVRQAPGKGLEWVSTFSGSGGRTYYADSVKGRFTISRDNSKSTLYLEMSALRAEDTAVYYCAKFYDSSGYYYFDYWGQGTLVTVSS VL: DIQLTQSPSTLSASVGDRVTVTCRASQNVGGWLAWYQQKPGKAPKLLIFQASRLENGVPSRFSANASGTEFTLTIGSLQPDDFATYYCQQYNTYPYTFGQGTKVDIK",2.19
8,"ADI-42787 (antibody, V domains shown, full-length IgG; also called Antibody Number 87) VH: EVQLVESGGGVVQSGRSLRLSCAASGFTFSGNAMHWVRQAPGKGLEWVAVILYDGSNQYYADSVKGRFTISRDNSKNTLYLQMNSLRPADTAVYYCARASMMPRPPVHDYWGQGTLVTVSS VL: DIRVTQSPATLSVSPGERATLSCRASQRVNSNLAWYQQKPGQAPRLLIYGASTRATGIPVRFSGSGSGTEFTLTISSLQSEDFAVYYCQQYNTWWTFGQGTKVEIK",0.45
9,"ADI-42192 (antibody, V domains shown, full-length IgG; also called Antibody Number 93) VH: EVQLLESGPGLVKPSQTLSLTCSVSGGSISSGGYYWTWIRQPPGKGLEWIGYIYYTGSTYYNPSLKSRVTISVDTSKNQFSLKLSSVTAADTAVYFCARAEYDTSGYYQQRLPEYFQHWGQGTLVTVSS VL: not shown",204
10,"ADI-45076 (antibody, V domains shown, full-length IgG; also called Antibody Number 97) VH: EVQLVESGGGFVQPGGSLRLSCAASGFIFSDYYMDWVRQAPGKGLEWVGRIRNKPNSYTTEYAASVKGRFSISRDDLKNSLYLQMNSLKTEDTAEYYCARVDGEEVALIYWGQGALVTVSS VL: DIQMTQSPSSLSASVGDRVTITCRASQTITRYMNWYQQKPGEAPKLLIYATSSLQSGVPSRFSGSGSGTDFTLTITNLQPADFATYYCQQSSTTRWTFGQGTKVDIK",0.882
11,"ADI-42213 (antibody, V domains shown, full-length IgG; also called Antibody Number 90) VH: EVQLLESGGGLVQPGGSLRLSCAASGFTFTYYAMSWVRQAPGKGLEWVSGISGSGDSTYNADSVKGRVTISRDNSKNTLYLQMNSLRAEDTAVYYCAKDGGYSTDWYFDLWGRGTLVTVSS VL: EIVLTQSPGTLSLSPGERATLSCRASQSVSSSFLAWYQQKPGQAPRLLIYGASSRATGIPDRFSGSGSGTDFTLTIRRLEPEDFAVYYCQQYGSSRRTFGQGTKVEIK",15.2
12,"ADI-42193 (antibody, V domains shown, full-length IgG; also called Antibody Number 95) VH: EVQLLESGGGLVQPGGSLRLSCAASGFIFSDHYMAWVRQAPGKGLEWVGRSRNRPNSYTTEYAASAKGRFTISRDDSKTSLYLQMNSLKTEDTAVYYCAREHGDYGLDYWGQGTLVTVSS VL: QPVLIQPPSASGTPGQRVTISCSGSSSNFGSNFVYWYQQLPGTAPKLLIYRVNQRPSGVPDRFSGSKSGTSASLAISGLRSEDEADYYCATWDVSLSNDVLFGGGTKLTVL",0.922
13,"ADI-42223 (antibody, V domains shown, full-length IgG; also called Antibody Number 84) VH: EVQLVESGGGLVQPGGSLRLSCAASGFTFSDYYMDWVRQAPGKGLEWVGGIRNKPNSYTTEYAASVKGRFTISRDDSKNSLFLQMNSLKTEDTAVYYCVRLYGDYVAYFDYWGQGTLVTVSS VL: DIQLTQSPSSLSASVGDRVTITCRASQSISQYLNWYQQKPGKAPKLLISPASSFQSGVPSRFSGSGSGTDFTLTITSLQPEDFATYYCQQSYSTPWTFGQGTKVDIK",1.04
14,"ADI-45078 (antibody, V domains shown, full-length IgG; also called Antibody Number 82) VH: EVQLVESGGGLIQPGGSLRLSCAASGFSFSSHAMTWVRQAPGKGLQWVSSIRGSDRTTNYADSVKGRFTVSRDNSKNTLYLQMNSLRAEDTAIYYCAKYYDSSGYYYFDHWGQGTLVTVSS VL: DIRMTQSPSTLSASIGDRVTITCRASQSISDWLAWYLQKPGKAPSLLIYRASSLETGVPSRFSGRGSGTEFTLTISSLQPDDFGTYYCQQYNRDPYTFGQGTKVDIK",5.88
15,"ADI-48910 (antibody, V domains shown, full-length IgG; also called Antibody Number 94) VH: EVQLVQSGGGLVQRGGSLRLSCAASGFTFSSYAMTWVRQAPGKGLEWVSDMNHSGDRTNYADSVRGRFTISRDNSKNTLYLQMNSLRAEDTAVYYCAKYYDSSGYYYFHSWGQGTLVTVSS VL: DIRLTQSPSTLSASVGDRVSITCRASQSISDWLAWYQQKPGKAPKLLIYRASGLETGVPSRFSGSGSGTEFTLTISSLQPDDFATYYCQQYNRYPYTFGQGTKVDIK",2.42
16,"ADI-42844 (antibody, V domains shown, full-length IgG; also called Antibody Number 91) VH: QVQLVESGGGVVQPGRSLRLSCTASGFTFSSYGMHWVRQAPGKGPEWVAVISYDGSKKYFADSVKGRFTISRDNSKNTLYLQMNSLRAEDTAVYSCAKGYDSNGYYYIDYWGQGTPVTVSS VL: DIRVTQSPSTLSASVGDRVTITCRASQSISSWLAWYQQKPGKAPKLLIYRASSLESGVPSRFSGSGSGTEFTLTISSLQPDDFATYYCQQYNRYPYTFGQGTKVEIK",137
